Experimental data from patent US20050058645A1 (ZENYTH OPERATIONS, published 2005).

B1: CDR-grafted 1D9 Fab (Fab, V domains shown)
VH: EVQLVESGGGLVQPGGSLRLSCAASGFTFSGYGMSWVRQAPGKGLEWVATISGLGGYTYYPDSVKGRFTISRDNSKNTLYLQMNSLRAEDTAVYYCARRFYGDYVGAMDYWGQGTLVTVSS
VL: DIQMTQSPSSLSASVGDRVTITCRSSKSLLHSNGITYLYWYQQKPGKAPKLLIYQMSNLASGVPSRFSGSGSGTDFTLTISSLQPEDFATYYCAQNLELPFTFGQGTKVEIKR
B2: mouse IL-13 (ligand, UniProt P20109 21-131, looked up)
chain: GPVPRSVSLPLTLKELIEELSNITQDQTPLCNGSMVWSVDLAAGGFCVALDSLTNISNCNAIYRTQRILHGLCNRKAPTTVSSLPDTKIEVAHFITKLLSYTKQLFRHGPF
B3: chimeric mouse IL-13Rα1-Fc (Fc fusion, UniProt O09030 26-340, looked up)
chain: ATEVQPPVTNLSVSVENLCTIIWTWSPPEGASPNCTLRYFSHFDDQQDKKIAPETHRKEELPLDEKICLQVGSQCSANESEKPSPLVKKCISPPEGDPESAVTELKCIWHNLSYMKCSWLPGRNTSPDTHYTLYYWYSSLEKSRQCENIYREGQHIACSFKLTKVEPSFEHQNVQIMVKDNAGKIRPSCKIVSLTSYVKPDPPHIKHLLLKNGALLVQWKNPQNFRSRCLTYEVEVNNTQTDRHNILEVEEDKCQNSESDRNMEGTSCFQLPGVLADAVYTVRVRVKTNKLCFDDNKLWSDWSEAQSIGKEQNST
notes: extracellular domain; Bought (R & D Systems); Preformed disulphide-bonded dimer; also called mIL-13Rα1-Fc; chimeric mouse receptor; not shown: Fc portion of human IgG
B4: soluble hIL-13Rα1 (ECD) (receptor)
chain: GGGGAAPTETQPPVTNLSVSVENLCTVIWTWNPPEGASSNCSLWYFSHFGDKQDKKIAPETRRSIEVPLNERICLQVGSQCSTNESEKPSILVEKCISPPEGDPESAVTELQCIWHNLSYMKCSWLPGRNTSPDTNYTLYYWHRSLEKIHQCENIFREGQYFGCSFDLTKVKDSSFEQHSVQIMVKDNAGKIKPSFNIVPLTSRVKPDPPHIKNLSFHNDDLYVQWENPQNFISRCLFYEVEVNNSQTETHNVFYVQEAKCENPEFERNVENTSCFMVPGVLPDTLNTVRIRVKTNKLCYEDDKLWSNWSQEMSIGKKRNST
notes: also called immobilized hIL-13Rα1 (ECD)
B5: chimeric human IL-13Rα1-Fc (Fc fusion)
chain: GGGGAAPTETQPPVTNLSVSVENLCTVIWTWNPPEGASSNCSLWYFSHFGDKQDKKIAPETRRSIEVPLNERICLQVGSQCSTNESEKPSILVEKCISPPEGDPESAVTELQCIWHNLSYMKCSWLPGRNTSPDTNYTLYYWHRSLEKIHQCENIFREGQYFGCSFDLTKVKDSSFEQHSVQIMVKDNAGKIKPSFNIVPLTSRVKPDPPHIKNLSFHNDDLYVQWENPQNFISRCLFYEVEVNNSQTETHNVFYVQEAKCENPEFERNVENTSCFMVPGVLPDTLNTVRIRVKTNKLCYEDDKLWSNWSQEMSIGKKRNST
notes: Bought (R & D Systems); Extracellular domain of IL-13Rα1 fused to Fc of human IgG; Expressed as preformed disulphide-bonded dimer; also called hIL-13Rα1-Fc; chimeric human receptor; not shown: Fc portion of human IgG

Columns and labels:
[1] = biological target: B4; assay: competition ELISA (phage displayed Fab) and Biacore competition (soluble Fab)
Protocol: (§1) FIGS. 11A and 11B are graphical representations of binding affinities of the chimeric and CDR-grafted Fab fragment. […] (B) Biosensor competition assay of soluble 1D9 chimeric or CDR-grafted Fab binding to immobilized hIL-13Rα1 (ECD) competed by soluble hIL-13Rα1 (ECD). Fold-difference in affinity is calculated from (IC₅₀/IC₅₀).
The CDR-grafted Fab has similar affinity for IL-13Rα1 as the reference murine-human chimeric Fab.

[2] = biological target: B5; assay: ELISA: phage displayed Fab on plate bound hIL-13Rα1-Fc (ECD) (2.5 µg/ml), competed by soluble hIL-13Rα1 (ECD)
[3] = biological target: B5; assay: Biosensor, immobilized mouse IL-13, chimeric receptor in solution
Source text: (§2) A qualitative comparison of sensorgrams obtained in this study to data obtained previously with monomeric receptor protein, indicated a substantial improvement in binding kinetics. This improvement is attributed to a much slower off-rate for the dimeric form, compared with the monomeric form, of the receptor. To further quantify this interaction a complete dose-response analysis using both human and mouse chimeric receptor proteins and immobilized human and mouse IL-13 was undertaken.

[4] = biological target: B3; assay: as above
Source text: as §2

[5] = biological target: human IL-13 (human, UniProt P35225 35-146, limits assumed); assay: Biosensor, immobilized IL-13
[6] = biological target: B2; assay: Biosensor, immobilized IL-13
[7] = biological target: B1; assay: Competition ELISA: phage displayed Fabs on plate bound hIL-13Rα1-Fc (ECD), competed by soluble hIL-13Rα1 (ECD); ratio of the IC50 of the CDR-graft to that of the chimera
[8] = biological target: B1; assay: Competition ELISA: phage displayed CDR-grafted 1D9 Fab on plate bound hIL-13Rα1-Fc (ECD) (2.5 µg/ml), competed by titrated soluble hIL-13Rα1 (ECD)
[9] = biological target: B1; assay: Biosensor competition assay: soluble Fabs on immobilized hIL-13Rα1 (ECD), competed by soluble hIL-13Rα1 (ECD); ratio of the IC50 of the CDR-graft to that of the chimera
Protocol: as §1

[10] = biological target: T1, mouse-human chimeric 1D9 Fab (human, UniProt P01857 1-103 = IgG part; P01834 1-107, limits assumed); assay: Biosensor competition assay: soluble chimeric 1D9 Fab on immobilized hIL-13Rα1 (ECD), competed by titrated soluble hIL-13Rα1 (ECD)
Protocol: as §1

[11] = biological target: B1; assay: Biosensor competition assay: soluble CDR-grafted 1D9 Fab on immobilized hIL-13Rα1 (ECD), competed by titrated soluble hIL-13Rα1 (ECD)
Protocol: as §1

[12] = biological target: T1, mouse-human chimeric 1D9 Fab; assay: Competition ELISA: phage displayed chimeric 1D9 Fab on plate bound hIL-13Rα1-Fc (ECD) (2.5 µg/ml), competed by titrated soluble hIL-13Rα1 (ECD)
[13] = biological target: T2, IL-13 (species not stated); assay: Biosensor, immobilized IL-13
T2 construct: the 100-fold comparison

T1 sequence (VH, as listed by the source limits assumed, chain 1 of 2): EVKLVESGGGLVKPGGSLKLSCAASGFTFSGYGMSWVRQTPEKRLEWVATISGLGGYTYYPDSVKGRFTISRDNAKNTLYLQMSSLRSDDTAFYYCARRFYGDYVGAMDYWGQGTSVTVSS
T1 sequence (VL, as listed by the source limits assumed, chain 2 of 2): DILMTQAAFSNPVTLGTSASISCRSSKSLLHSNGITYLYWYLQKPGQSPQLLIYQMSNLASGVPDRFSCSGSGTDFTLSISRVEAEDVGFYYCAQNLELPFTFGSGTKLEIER
human IL-13, sequence (P35225 35-146 limits assumed): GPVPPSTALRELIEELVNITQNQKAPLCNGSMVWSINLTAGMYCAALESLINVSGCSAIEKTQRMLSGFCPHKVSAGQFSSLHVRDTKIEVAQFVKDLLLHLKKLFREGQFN

**Q.** Does B1 bind [1]?
**A.** Result: binds

**Q.** Does B1 bind [2]?
**A.** Result: binds

**Q.** What does the source list for B2?
**A.** Kd [3]: 15.1 nM; Kd [4]: 0.536 nM

**Q.** With B3 as the binder, how does the “fold greater affinity compared with the chimeric human receptor” value [5] read?
**A.** Its value is roughly 10 fold.

**Q.** And the “fold greater affinity compared with the chimeric human receptor” value [6]?
**A.** Its value is roughly 10 fold.

**Q.** B4 was tested. Which “fold difference in affinity (CDR-graft against Chimera, IC50/IC50)” value [7] did it give?
**A.** The value was roughly 3 fold.

**Q.** What about the IC50 [8] of the same binder?
**A.** The IC50 was 0.127 µg/mL.

**Q.** And the “fold difference in affinity (CDR-graft against Chimera, IC50/IC50)” value [9]?
**A.** Its value is roughly 1.5 fold.

**Q.** What about the IC50 [10] of the same binder?
**A.** Its IC50 is 6.66 nM.

**Q.** What about the IC50 [11] of the same binder?
**A.** Its IC50 is 9.61 nM.

**Q.** And the IC50 [12]?
**A.** Its IC50 is 0.045 µg/mL.

**Q.** B5 was tested. Which “fold increase in affinity compared with the monomeric form of the receptor” value [13] did it give?
**A.** The value was 100 fold.
